The values that follow come from publication PMC4801485 (Biochemistry, 2015).

What all share (assay): NMR line shape analysis
Assay [1] addresses cyclophilin domain of human Cyclophilin B (residues 39-216) (human, UniProt P23284 39-216).
For assay [2], the target named is human Cyclophilin A (human, UniProt P62937 1-165).
Assay [3] addresses cyclophilin domain of human Cyclophilin C (residues 25-212) (human, UniProt P45877 25-212).

Sequence of cyclophilin domain of human Cyclophilin B (residues 39-216) (P23284 39-216): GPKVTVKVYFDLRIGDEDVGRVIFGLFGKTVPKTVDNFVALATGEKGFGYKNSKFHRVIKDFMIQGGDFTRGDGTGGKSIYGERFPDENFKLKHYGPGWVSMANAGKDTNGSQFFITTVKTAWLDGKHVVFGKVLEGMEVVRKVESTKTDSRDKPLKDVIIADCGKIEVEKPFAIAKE
Sequence of human Cyclophilin A (P62937 whole entry, the tested form may be a part): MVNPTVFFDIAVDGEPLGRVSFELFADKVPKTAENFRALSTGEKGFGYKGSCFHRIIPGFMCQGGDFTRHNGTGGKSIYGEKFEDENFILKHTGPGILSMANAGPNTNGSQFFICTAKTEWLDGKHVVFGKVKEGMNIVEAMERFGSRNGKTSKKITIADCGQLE
Sequence of cyclophilin domain of human Cyclophilin C (residues 25-212) (P45877 25-212): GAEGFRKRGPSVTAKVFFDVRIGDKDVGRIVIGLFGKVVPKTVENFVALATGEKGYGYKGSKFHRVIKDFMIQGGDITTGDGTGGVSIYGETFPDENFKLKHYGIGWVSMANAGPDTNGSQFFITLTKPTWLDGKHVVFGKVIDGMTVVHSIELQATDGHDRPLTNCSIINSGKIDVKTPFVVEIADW

Take GSFGPDLRAGD [peptide substrate GSFGPDLRAGD]: in assay [1], the “koff of the cis isomer (kCD)” value was determined as 200 s⁻¹, the “koff of the trans isomer (kBA)” value was 960 s⁻¹, the “kon of the cis isomer (kDC)” value came out at 4.9e+06 s⁻¹ M⁻¹ and the “kon of the trans isomer (kAB)” value was found to be 2.1e+06 s⁻¹ M⁻¹. In assay [2], the “koff of the cis isomer (kCD)” value turned out to be 170 s⁻¹, the “koff of the trans isomer (kBA)” value is 550 s⁻¹, the “kon of the cis isomer (kDC)” value amounted to 1e+07 s⁻¹ M⁻¹ and the “kon of the trans isomer (kAB)” value was determined as 3.2e+06 s⁻¹ M⁻¹. In addition, in assay [3], the “koff of the cis isomer (kCD)” value was 260 s⁻¹, the “koff of the trans isomer (kBA)” value was 1620 s⁻¹, the “kon of the cis isomer (kDC)” value came to 7.9e+06 s⁻¹ M⁻¹ and the “kon of the trans isomer (kAB)” value amounted to 4.2e+06 s⁻¹ M⁻¹.
